Laboratory results reported in the supplement of paper PMC11246515.
± gives the standard deviation of the averaged measurements.

Assay: total protein half-life in vivo (active degradation + dilution); higher = more stable protein
[1] = E. coli NCM3722 delta-clpP delta-lon delta-hslV, growth: N-lim chemostat, doubling time 6 h
[2] = E. coli NCM3722 delta-clpP, growth: N-lim chemostat, doubling time 6 h
[3] = E. coli NCM3722 delta-hslV, growth: N-lim chemostat, doubling time 6 h
[4] = E. coli NCM3722 delta-lon, growth: N-lim chemostat, doubling time 6 h
[5] = E. coli NCM3722 delta-smpB, growth: N-lim chemostat, doubling time 6 h
[6] = wild type E. coli NCM3722, growth: C-lim chemostat, doubling time 3 h
[7] = wild type E. coli NCM3722, growth: C-lim chemostat, doubling time 6 h
[8] = wild type E. coli NCM3722, growth: C-lim chemostat, doubling time 12 h
[9] = wild type E. coli NCM3722, growth: N-lim chemostat, doubling time 6 h
[10] = wild type E. coli NCM3722, growth: N-lim chemostat, doubling time 12 h
[11] = wild type E. coli NCM3722, growth: P-lim chemostat, doubling time 6 h
[12] = wild type E. coli NCM3722, growth: P-lim chemostat, doubling time 12 h

Row | Sequence | total protein half-life in vivo [1] [h] | total protein half-life in vivo [2] [h] | total protein half-life in vivo [3] [h] | total protein half-life in vivo [4] [h] | total protein half-life in vivo [5] [h] | total protein half-life in vivo [6] [h] | total protein half-life in vivo [7] [h] | total protein half-life in vivo [8] [h] | total protein half-life in vivo [9] [h] | total protein half-life in vivo [10] [h] | total protein half-life in vivo [11] [h] | total protein half-life in vivo [12] [h]
1 | MPNITWCDLPEDVSLWPGLPLSLSGDEVMPLDYHAGRSGWLLYGRGLDKQRLTQYQSKLGAAMVIVAAWCVEDYQVIRLAGSLTARATRLAHEAQLDVAPLGKIPHLRTPGLLVMDMDSTAIQIECIDEIAKLAGTGEMVAEVTERAMRGELDFTASLRSRVATLKGADANILQQVRENLPLMPGLTQLVLKLETLGWKVAIASGGFTFFAEYLRDKLRLTAVVANELEIMDGKFTGNVIGDIVDAQYKAKTLTRLAQEYEIPLAQTVAIGDGANDLPMIKAAGLGIAYHAKPKVNEKAEVTIRHADLMGVFCILSGSLNQK [P0AGB0] | 5.32 ± 0.097 | 5.09 ± 0.32 | 5.09 ± 0.31 | 5.43 ± 0.31 | 5.08 ± 0.26 | 3.01 ± 0.1 | 5.07 ± 0.26 | 10.3 ± 0.85 | 4.819 ± 0.032 | 8.79 ± 0.6 | 5.83 ± 0.23 | 11.5 ± 0.32
2 | MPNIVLSRIDERLIHGQVGVQWVGFAGANLVLVANDEVAEDPVQQNLMEMVLAEGIAVRFWTLQKVIDNIHRAADRQKILLVCKTPADFLTLVKGGVPVNRINVGNMHYANGKQQIAKTVSVDAGDIAAFNDLKTAGVECFVQGVPTEPAVDLFKLL |  |  |  |  |  | 3.26 | 5.07 ± 0.6 | 8.17 |  |  |  | 
3 | MPQHDQLHRYLFENFAVRGELVTVSETLQQILENHDYPQPVKNVLAELLVATSLLTATLKFDGDITVQLQGDGPMNLAVINGNNNQQMRGVARVQGEIPENADLKTLVGNGYVVITITPSEGERYQGVVGLEGDTLAACLEDYFMRSEQLPTRLFIRTGDVDGKPAAGGMLLQVMPAQNAQQDDFDHLATLTETIKTEELLTLPANEVLWRLYHEEEVTVYDPQDVEFKCTCSRERCADALKTLPDEEVDSILAEDGEIDMHCDYCGNHYLFNAMDIAEIRNNASPADPQVH [P0A6Y5] | 4.77 ± 0.4 | 4.06 ± 0.058 | 4.35 ± 0.87 | 4.6 ± 0.6 | 3.55 ± 0.12 | 1.924 ± 0.015 | 3.85 ± 0.11 | 7.32 ± 0.54 | 4.02 ± 0.13 | 6.02 ± 0.22 | 4.51 ± 0.073 | 9.18 ± 2
4 | MPQISRYSDEQVEQLLAELLNVLEKHKAPTDLSLMVLGNMVTNLINTSIAPAQRQAIANSFARALQSSINEDKAH [P0AD24] | 6.24 ± 0.65 | 4.76 | 5.69 ± 0.2 | 4.63 ± 1.3 | 4.16 ± 1.4 | 2.99 ± 0.041 | 5.16 ± 0.18 | 10.1 ± 0.73 | 3.54 ± 0.42 | 9.19 | 5.83 | 10.4
5 | MPQQIELRNIALQAAQPLVHGVSLTLQRGRVLALVGGSGSGKSLTCAATLGILPAGVRQTAGEILADGKPVSPCALRGIKIATIMQNPRSAFNPLHTMHTHARETCLALGKPADDATLTAAIEAVGLENAARVLKLYPFEMSGGMLQRMMIAMAVLCESPFIIADEPTTDLDVVAQARILDLLESIMQKQAPGMLLVTHDMGVVARLADDVAVMSDGKIVEQGDVETLFNAPKHTVTRSLVSAHLALYGMELAS | 4.47 |  |  |  |  |  |  |  |  |  |  | 
6 | MPQQNYLDELTPAFTSLLAIKEASRCLLCHDAPCSQACPAQTDPGKFIRSIYFRNFKGAAETIRENNALGAVCARVCPTEKLCQSGCTRAGVDAPIDIGRLQRFVTDFEQQTGMEIYQPGTKTLGKVAIIGAGPAGLQASVTLTNQGYDVTIYEKEAHPGGWLRNGIPQFRLPQSVLDAEIARIEKMGVTIKCNNEVGNTLTLEQLKAENRAVLVTVGLSSGSGLPLFEHSDVEIAVDFLQRARQAQGDISIPQSALIIGGGDVAMDVASTLKVLGCQAVTCVAREELDEFPASEKEFTSARELGVSIIDGFTPVAVEGNKVTFKHVRLSGELTMAADKIILAVGQHARLDAFAELEPQRNTIKTQNYQTRDPQVFAAGDIVEGDKTVVYAVKTGKEAAEAIHHYLEGACSC | > 8 |  |  |  |  | 1.14 ± 0.029 | 1.42 ± 0.22 | 2.52 ± 1.1 |  |  |  | 
7 | MPQRILVLGASGYIGQHLVRTLSQQGHQILAAARHVDRLAKLQLANVSCHKVDLSWPDNLPALLQDIDTVYFLVHSMGEGGDFIAQERQVALNVRDALREVPVKQLIFLSSLQAPPHEQSDHLRARQATADILREANVPVTELRAGIIVGAGSAAFEVMRDMVYNLPVLTPPRWVRSRTTPIALENLLHYLVALLDHPASEHRIFEAAGPEVLSYQQQFEHFMAVSGKRRWLIPIPLPTRWISVWFLNVITSVPPTTARALIQGLKHDLLADDTALRALIPQRLIAFDDAVRSTLKEEEKLVNSSDWGYDAQAFARWRPEYGYFAKQAGFTVKTSASLAALWQVVNQIGGKERYFFGNILWQTRALMDRAIGHKLAKGRPEREYLQTGDAVDSWKVIVVEPEKQLTLLFGMKAPGLGRLCFSLEDKGDYRTIDVRAFWHPHGMPGLFYWLLMIPAHLFIFRGMAKQIARLAEQSTD |  | 6.7 ± 0.22 | 6.57 ± 0.8 | 6.64 ± 0.098 | 6.11 ± 0.37 | 2.94 ± 0.081 | 5.88 ± 0.11 | 12.1 ± 2.1 | 6.42 ± 0.19 | 11.8 ± 0.4 | 5.23 ± 0.016 | 11.1 ± 0.83
8 | MPRGLELLIAQTILQGFDAQYGRFLEVTSGAQQRFEQADWHAVQQAMKNRIHLYDHHVGLVVEQLRCITNGQSTDAAFLLRVKEHYTRLLPDYPRFEIAESFFNSVYCRLFDHRSLTPERLFIFSSQPERRFRTIPRPLAKDFHPDHGWESLLMRVISDLPLRLRWQNKSRDIHYIIRHLTETLGTDNLAESHLQVANELFYRNKAAWLVGKLITPSGTLPFLLPIHQTDDGELFIDTCLTTTAEASIVFGFARSYFMVYAPLPAALVEWLREILPGKTTAELYMAIGCQKHAKTESYREYLVYLQGCNEQFIEAPGIRGMVMLVFTLPGFDRVFKVIKDRFAPQKEMSAAHVRACYQLVKEHDRVGRMADTQEFENFVLEKRHISPALMELLLQEAAEKITDLGEQIVIRHLYIERRMVPLNIWLEQVEGQQLRDAIEEYGNAIRQLAAANIFPGDMLFKNFGVTRHGRVVFYDYDEICYMTEVNFRDIPPPRYPEDELASEPWYSVSPGDVFPEEFRHWLCADPRIGPLFEEMHADLFRADYWRALQNRIREGHVEDVYAYRRRQRFSVRYGEMLF | 4.97 | 3.61 |  |  |  |  | 6.35 ± 0.23 | 10.7 ± 0.2 |  |  |  | 11.9
9 | MPRSTWFKALLLLVALWAPLSQAETGWQPIQETIRKSDKDNRQYQAIRLDNGMVVLLVSDPQAVKSLSALVVPVGSLEDPEAYQGLAHYLEHMSLMGSKKYPQADSLAEYLKMHGGSHNASTAPYRTAFYLEVENDALPGAVDRLADAIAEPLLDKKYAERERNAVNAELTMARTRDGMRMAQVSAETINPAHPGSKFSGGNLETLSDKPGNPVQQALKDFHEKYYSANLMKAVIYSNKPLPELAKMAADTFGRVPNKESKKPEITVPVVTDAQKGIIIHYVPALPRKVLRVEFRIDNNSAKFRSKTDELITYLIGNRSPGTLSDWLQKQGLVEGISANSDPIVNGNSGVLAISASLTDKGLANRDQVVAAIFSYLNLLREKGIDKQYFDELANVLDIDFRYPSITRDMDYVEWLADTMIRVPVEHTLDAVNIADRYDAKAVKERLAMMTPQNARIWYISPKEPHNKTAYFVDAPYQVDKISAQTFADWQKKAADIALSLPELNPYIPDDFSLIKSEKKYDHPELIVDESNLRVVYAPSRYFASEPKADVSLILRNPKAMDSARNQVMFALNDYLAGLALDQLSNQASVGGISFSTNANNGLMVNANGYTQRLPQLFQALLEGYFSYTATEDQLEQAKSWYNQMMDSAEKGKAFEQAIMPAQMLSQVPYFSRDERRKILPSITLKEVLAYRDALKSGARPEFMVIGNMTEAQATTLARDVQKQLGADGSEWCRNKDVVVDKKQSVIFEKAGNSTDSALAAVFVPTGYDEYTSSAYSSLLGQIVQPWFYNQLRTEEQLGYAVFAFPMSVGRQWGMGFLLQSNDKQPSFLWERYKAFFPTAEAKLRAMKPDEFAQIQQAVITQMLQAPQTLGEEASKLSKDFDRGNMRFDSRDKIVAQIKLLTPQKLADFFHQAVVEPQGMAILSQISGSQNGKAEYVHPEGWKVWENVSALQQTMPLMSEKNE | 6.72 ± 0.29 | 6.24 ± 0.52 | 5.96 ± 0.35 | 6.46 ± 0.14 | 5.53 ± 0.073 | 3.05 ± 0.33 | 5.91 ± 0.59 | 11.5 ± 0.5 | 6.17 ± 0.092 | 11.7 ± 0.35 | 5.28 ± 0.059 | 11.1 ± 0.72
10 | MPSARLQQQFIRLWQCCEGKSQDTTLNELAALLSCSRRHMRTLLNTMQDRGWLTWEAEVGRGKRSRLTFLYTGLALQQQRAEDLLEQDRIDQLVQLVGDKATVRQMLVSHLGRSFRQGRHILRVLYYRPLRNLLPGSALRRSETHIARQIFSSLTRINEENGELEADIAHHWQQISPLHWRFFLRPGVHFHHGRELEMDDVIASLKRINTLPLYSHIADIVSPTPWTLDIHLTQPDRWLPLLLGQVPAMILPREWETLSNFASHPIGTGPYAVIRNSTNQLKIQAFDDFFGYRALIDEVNVWVLPEIADEPAGGLMLKGPQGEEKEIESRLEEGCYYLLFDSRTHRGANQQVRDWVSYVLSPTNLVYFAEEQYQQLWFPAYGLLPRWHHARTIKSEKPAGLESLTLTFYQDHSEHRVIAGIMQQILASHQVTLKIKEIDYDQWHTGEIESDIWLNSANFTLPLDFSVFAHLCEVPLLQHCIPIDWQADAARWRNGEMNLANWCQQLVASKAMVPLLHHWLIIQGQRSMRGLRMNTLGWFDFKSAWFAPPDP | 6.14 ± 0.11 | 6.77 ± 0.29 |  | 5.83 ± 0.34 | 5.32 ± 0.33 |  | 5.64 ± 0.28 | 11.9 ± 2.8 | 5.67 ± 0.6 | 13.4 ± 0.32 | 5.35 ± 0.34 | 9.889 ± 0.087
11 | MPSTRYQKINAHHYRHIWVVGDIHGEYQLLQSRLHQLSFFPKIDLLISVGDNIDRGPESLDVLRLLNQPWFTSVKGNHEAMALEAFETGDGNMWLASGGDWFFDLNDSEQQEAIDLLLKFHHLPHIIEITNDNIKYAIAHADYPGSEYLFGKEIAESELLWPVDRVQKSLNGELQQINGADYFIFGHMMFDNIQTFANQIYIDTGSPNSGRLSFYKIK |  |  |  |  |  |  |  | > 16 | 4.06 |  |  | > 16
12 | MPTKMRTTRNLLLMATLLGSALFARAAEKEMTIGAIYLDTQGYYAGVRQGVQDAAKDSSVQVQLIETNAQGDISKESTFVDTLVARNVDAIILSAVSENGSSRTVRRASEAGIPVICYNTCINQKGVDKYVSAYLVGDPLEFGKKLGNAAADYFIANKIDQPKIAVINCEAFEVCVQRRKGFEEVLKSRVPGAQIVANQEGTVLDKAISVGEKLIISTPDLNAIMGESGGATLGAVKAVRNQNQAGKIAVFGSDMTTEIAQELENNQVLKAVVDISGKKMGNAVFAQTLKVINKQADGEKVIQVPIDLYTKTEDGKQWLATHVDGLP |  |  |  | > 8 | 5.48 ± 2.3 | 3.51 ± 0.069 | 6.18 ± 0.59 | 10.2 ± 0.31 |  |  | > 8 | 13.19 ± 0.1
13 | MPTQEAKAHHVGEWASLRNTSPEIAEAIFEVAGYDEKMAEKIWEEGSDEVLVKAFAKTDKDSLFWGEQTIERKNV [P0AB14] | 5.53 ± 0.41 |  | 2.63 | 3.45 ± 0.75 | 2.46 ± 0.13 | 2.55 ± 0.13 | 4.15 ± 0.58 | 5.68 ± 1 | 2.39 ± 0.054 | 3.85 ± 1.1 | 3.02 ± 0.39 | 5.43 ± 0.18
14 | MPVFALLALVAYSVSLALIVPGLLQKNGGWRRMAIISAVIALVCHAIALEARILPDGDSGQNLSLLNVGSLVSLMICTVMTIVASRNRGWLLLPIVYAFALINLALATFMPNEYITHLEATPGMLVHIGLSLFSYATLIIAALYALQLAWIDYQLKNKKLAFNQEMPPLMSIERKMFHITQIGVVLLTLTLCTGLFYMHNLFSMENIDKAVLSIVAWFVYIVLLWGHYHEGWRGRRVVWFNVAGAVILTLAYFGSRIVQQLIS |  |  |  |  |  |  |  | 13.6 | 6.45 |  |  | 15.5
